Results as given in patent publication US20060002929A1 (published 2006).

T1: 018-muOX40L (mouse, UniProt P43488)
T1 construct: also called mouse OX40L
T1 sequence (bead-bound control antigen, looked up): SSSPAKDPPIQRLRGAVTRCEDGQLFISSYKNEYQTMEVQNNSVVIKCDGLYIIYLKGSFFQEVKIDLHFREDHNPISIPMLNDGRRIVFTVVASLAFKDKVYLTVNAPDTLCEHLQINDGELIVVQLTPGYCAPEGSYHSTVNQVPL

B1: Human Fc-OX40L (Fc fusion, UniProt P23510 51-183, looked up)
chain: QVSHRYPRIQSIKVQFTEYKKEKGFILTSQKEDEIMKVQNNSVIINCDGFYLISLKGYFSQEVNISLHYQKDEEPLFQLKKVRSVNSLMVASLTYKDKVYLNVTTDNTSLDDFHVNGGELILIHQNPGEFCVL
notes: Defined as 'the Fc domain of human IgG fused to human OX40L'; Made in 293T or COS cells; also called hFc-OX40L; HFc-OX40L; not shown: Fc domain of human IgG
B2: hOX40R-Fc (Fc fusion, human, UniProt P43489 29-214, looked up)
chain: LHCVGDTYPSNDRCCHECRPGNGMVSRCSRSQNTVCRPCGPGFYNDVVSSKPCKPCTWCNLRSGSERKQLCTATQDTVCRCRAGTQPLDSYKPGVDCAPCPPGHFSPGDNQACKPWTNCTLAGKHTLQPASNSSDAICEDRDPPATQPQETQGPPARPITVQPTEAWPRTSQGPSTRPVEVPGGRA
notes: Defined as 'the human IgG Fc domain fused to the human OX40 receptor'; also called hFc-OX40R; HFc-OX40R; not shown: Fc domain of human IgG

What was measured:
Human Fc-OX40L [1] = target: B1; assay: BIAcore solution equilibrium at 0.2 and 0.6 nM binder, dual-curve one-site fit (KinExA software)
Experimental: (§1) Specifically, BIACore chips were prepared as described above in Example 1, with the following modifications. HFc-OX40L was immobilized to the sensor chip at a high density of 8,000 RU. […] Samples were incubated at room temperature for at least five hours to allow samples to reach equilibrium. Samples were then injected over the immobilized hFc-OX40L surface for 30 minutes at 10 μl/min. After the sample injection, the samples were allowed to dissociate for 3 minutes, and then the surface was regenerated by injecting 8 mM glycine, pH 3.0, 1 M NaCl for 30 seconds. The binding signals, measured in RU, obtained were proportional to the free antibody in solution at equilibrium for a given concentration of ligand. The dissociation equilibrium constant (KD) was obtained from nonlinear regression analysis of the competition curves using a dual-curve one-site homogeneous binding model (KinExA software v. 2.3, Sapidyne Instruments Inc., Boise Id.).

Human Fc-OX40L [2] = target: B1; assay: BIAcore, immobilized hFc-OX40L
Human Fc-OX40L [3] = target: B1; assay: BIAcore solution equilibrium: 0.2 nM antibody pre-mixed with 20-0.005 nM hFc-OX40L, free antibody read on immobilized hFc-OX40L
Experimental: The binding equilibrium of four of the antibodies was assessed on a BIACore chip as described above in Example 1 with the following modifications. HFc-OX40L was immobilized to the sensor chip at a high density of 8,000 RU. Serial 2.5-fold dilutions of hFc-OX40L were prepared in sample buffer so that the final concentration of hFc-OX40L, once mixed with an anti-OX40L antibody, ranged between 20 nM to 0.005 nM. Monoclonal anti-OX40L antibody candidates were mixed with each hFc-OX40L dilution in a total of 400 μl so that the final concentration of monoclonal antibody was 0.2 nM. Samples were incubated at room temperature for at least five hours to allow samples to reach equilibrium. Samples were then injected over the immobilized hFc-OX40L surface for 30 minutes at 10 μl/min. After the sample injection, the samples were allowed to dissociate for 3 minutes, and then the surface was regenerated by injecting 8 mM glycine, pH 3.0, 1 M NaCl for 30 seconds. The binding signals obtained were proportional to the free antibody in solution at equilibrium for a given concentration of ligand. Plotting the binding signal versus ligand concentration, and using the scientific graphing software program GraphPad Prizm, the EC₅₀ values for each antibody at a given concentration in the presence of varying concentrations of hFc-OX40L were calculated.

Human Fc-OX40L [4] = target: B1; assay: cell-based or functional assay
018-muOX40L [5] = target: T1, 018-muOX40L; assay: Luminex bead assay: antigen loaded on biotin beads, antibody titrated, detection anti-huIgG-PE [panel Ab C]
hOX40R-Fc = target: B2; assay: BIAcore solution equilibrium at 0.2 and 0.6 nM binder, dual-curve one-site fit (KinExA software)
Experimental: as §1

018-muOX40L [6] = target: T1, 018-muOX40L; assay: Luminex bead assay: antigen loaded on biotin beads, antibody titrated, detection anti-huIgG-PE [panel Ab F]

Kd (Human Fc-OX40L [1]) [nM] | EC50 (Human Fc-OX40L [2]) [nM] | EC50 (Human Fc-OX40L [3]) [nM] | IL-2 Inhibition (IC50 [nM]) (Human Fc-OX40L [4]) [nM] | binding result (018-muOX40L [5]) | Kd (hOX40R-Fc) [nM] | binding result (018-muOX40L [6]) | Binder
0.033 | 0.1 | 0.101 | 2 | no binding (tested: 100 nM) |  |  | Ab C (antibody, V domains shown, Human anti-OX40L monoclonal antibody) VH: QVQLVESGGGVVQPGRSLRLSCAASGFTFSFYGMHWVRQAPGKGLEWVAVIWYDGSNKYYADSVKGRFTISRDNSKNTLYLQMNSLRAEDTAVYYCARGGYDYVWGSYRRNSDFDYWGQGTLVTVSS VL: not shown
 |  |  |  |  | 1 |  | B1
 | 1 |  | 5.2 |  |  |  | B2
 | 0.6 |  | 0.49 |  |  |  | Ab B (antibody, V domains shown, Human anti-OX40L monoclonal antibody) VH: QVQLQESGPGLVKPSETLSLTCTVSGGSISTYYWNWIRQPAGKGLEWIGRIYISGSTNYNPSLKSRVTMSVDTSKNQFSLKLSSVTAADTAVYYCARDRVDIVATKGHYYYGMDVWGQGTTVTVSS VL: not shown
 | 1 |  | 0.32 |  |  |  | Ab A (antibody, V domains shown, Human anti-OX40L monoclonal antibody from transgenic mice) VH: not shown VL: DIQMTQSPSSLSASVGDRVTITCRASQGISNHLVWYQQKVGKVPKLLIYAASTLQSGVPSRFSGSGSGTDFTLTISSLQPEDVATYYCQKFNSAPFTFGPGTKVDIKR
 | 0.69 | 0.686 | 0.58 |  |  |  | Ab E (antibody, V domains shown, Human anti-OX40L monoclonal antibody) VH: EVQLVESGGGLVKPGGSLRLSCAASGFTFSNAWMSWVRQAPGKGLEWVGRIKRKTDGGTIDYAAPVKGRFTISRADSKNTLFLQMNSLITEDTAVYYCTISYYYDYSGYYYVDHWGQGTLVTVSS VL: DIQMTQSPSSLSASVGDRVTITCRASQGISNHLVWYQQKPGKVPKLLIYAASTLQSGVPSRFSGSGSGTDFTLTISSLQPEDVATYYCQKYNSAPLTFGGGTKVEIKR
0.12 |  | 0.402 |  |  |  | no binding (tested: 100 nM) | Ab F (antibody, V domains shown, Human anti-OX40L monoclonal antibody) VH: EVQLVESGGGLVKPGGSLRLSCAASGFTFSNAWMSWVRQAPGKGLEWVGRIKRKTDGGTIDYAAPVKGRFTISRADSKNTLFLQMNSLITEDTAVYYCTISYYYDYSGYYYVDHWGQGTLVTVSS VL: DIQMTQSPSSLSASVGDRVTITCRASQGISNHLVWYQQKPGKVPKLLIYAASTLQSGVPSRFSGSGSGTDFTLTISSLQPEDVATYYCQKYNSAPLTFGGGTKVEIKR
